Measurements reported in PMC8367818, “The Taxus genome provides insights into paclitaxel biosynthesis” (Nature Plants, 2021).

B1: TS1 (Taxus chinensis) (protein)
chain: MSSSTGTSKVVSETSSTIVDDIPRLSANYHGDLWHHNVIQTLETPFRESSTYQERADELVVKIKDMFNALGDGDISPSAYDTAWVARVATISSDGSEKPRFPQALNWVLNNQLQDGSWGIESHFSLCDRLLNTINSVIALSVWKTGHSQVEQGTEFIAENLRLLNEEDELSPDFEIIFPALLQKAKSLGINLPYDLPFIKYLSTTREARLTDVSAAADNIPANMLNALEGLEEVIDWKKIMRFQSKDGSFLSSPASTACVLMNTGDEKCFTFLNNLLDKFGGCVPCMYSIDLLERLSLVDNIEHLGIGRHFKQEIKVALDYVYRHWSERGIGWGRDSLVPDLNTTALGLRTLRTHGYDVSSDVLNNFKDENGRFFSSAGQTHVELRSVVNLFRASDLAFPDEGAMDDARKFAEPYLRDALATKISTNTKLFKEIEYVVEYPWHMSIPRLEARSYIDSYDDDYVWERKTLYRMPSLSNSKCLELAKLDFNIVQSLHQEELKLLTRWWKESGMADINFTRHRVAEVYFSSATFEPEYSATRIAFTKIGCLQVLFDDMADIFATLDELKSFTEGVKRWDTSLLHEIPECMQTCFKVWFKLMEEVNNDVVKVQGRDMLAHIRKPWELYFNCYVQEREWLDAGYIPTFEEYLKTYAISVGLGPCTLQPILLMGELVKDDVVEKVHYPSNMFELVSLSWRLTNDTKTYQAEKARGQQASGIACYMKDNPGATEEDAIKHICRVVDRALKEASFEYFKPSNDIPMGCKSFIFNLRLCVQIFYKFIDGYGIANEEIKDYIRKVYIDPIQV
notes: 60-residue N-terminal (plastid transit) truncation, His-tagged, pET28b, E. coli, purified
B2: TS2 (Taxus chinensis) (protein)
chain: SGSPTKLATENANAVAESNLIPRLSANYHGDLWHHGVIQTLQTPYQESSSYQERAEELIVKIKDMFKAVEEGAISPSAYDTAWVARVPDGSEKPRFPQALNWLLHNQLQDGSWGLESHFMLSDRLLSTLNSVISLLVWKTGQQQVEQGTLFITENLKLLEGEDELPPDFEIIFPALLQKAKALGMSLPDHDLPFIKSLSVAREARLASYTDNNIPASMLNALEGLEEVIDWDKIMRFQMPCLYSIDLLERLSLVDNIEHLGIGRHFKQEIKVALDYVYRYWSERGIGLGRDSLIPDLNTTALGLRTLRAHGYNVSSEVLNNFKDENGRFFSSLGQTHVELRSMVNLLRASDLAFPDEPLMDDAKIFAEAYLRDALATRISTNTKLFKEIDYAVEYPWHMSIPRLEARSYIDVYDDDYTWQNKTLYRMSNLSNAYCLELAKLDFNIVQSLHQEELKLLTRWWKESGMADINFTRHRVAEVYFSSATFEPEYSSTRIAFTKIGCLQVLFDDMADIFATLDELRDFTEGVKRWDTSLIHKLPDCMQTCFRVWFNLMEEVNNDVSNVQGRDMLNHIRKPWELYFNCYVQEREWLDAGYIPTLEEYLKTYSISVGLGPCTLQPILLMGDIVKDDVVEKVHYPSNLFELVSLSWRLTNDTKTYQAEKARGQQASGIACYMKDNPGSTEEDAIKYICGVVDRALKEACFEYFKPADDVPMSCKSFIFNLRLCVQIFYKFIDGYGIANEEIKDYIRKVYIEPIQV
notes: as for B1

Substrate: CC(C)=CCC/C(C)=C/CC/C(C)=C/CC/C(C)=C/COP(=O)(O)OP(=O)(O)O
Test: purified protein
Type: biochemical, Taxus chinensis
Settings: 1 mM MgCl2, 25 mM HEPES pH 8.5, 10% glycerol, 5 mM DTT, 32 °C, 30 min, GGPP spiked with [1-3H]-GGPP

Protein	Km [µM]	kcat [s⁻¹]
B1	5.5 ± 1.6	1705
B2	8.6 ± 1.5	3280
